Measurements reported in PMC9966682, “Lactose and Galactose Promote the Crystallization of Human Galectin-10” (Molecules, 2023).

Target: the molecule itself
Test: SEC; size-exclusion HPLC, Spherogel-TSK-2000SW; Gal-10 diluted to 100 μM, incubated 2 h at 4 °C; PBS–azide buffer (6.7 mM KH2PO4, 150 mM NaCl, 14 mM β-mercaptoethanol, 0.02% NaN3), pH 7.4; monomer–dimer equilibrium

B1: Recombinant human Charcot–Leyden crystal (CLC) protein (natural protein, UniProt Q05315 1-142, looked up)
chain: MSLLPVPYTEAASLSTGSTVTIKGRPLACFLNEPYLQVDFHTEMKEESDIVFHFQVCFGRRVVMNSREYGAWKQQVESKNMPFQDGQEFELSISVLPDKYQVMVNGQSSYTFDHRIKPEAVKMVQVWRDISLTKFNVSYLKR
notes: Galectin-10 (Charcot-Leyden crystal protein), human; the introduction gives 142 amino-acid residues; also called Galectin-10; Gal-10; source: E. coli, bought: Cloud-Clone Corp., purified with Ni-nitrilotriacetic acid resin
B1 was tested, and the “stoichiometry N” value was 2.
